Test results reported in patent publication US20190112349A1 (UNUM THERAPEUTICS, published 2019).
Read-outs that look alike come from different tables or passages of the source.

B1: wild-type anti-BCMA antibody (antibody)
heavy: not shown
light: DIVLTQSPPSLAMSLGKRATISCRASESVTILGSHLIHWYQQKPGQPPTLLIQLASNVQTGVPARFSGSGSRTDFTLTIDPVEEDDVAVYYCLQSRTIPRTFGGGTKLEIKRTVAAPSVFIFPPSDEQLKSGTASVVCLLNNFYPREAKVQWKVDNALQSGNSQESVTEQDSKDSTYSLSSTLTLSKADYEKHKVYACEVTHQGLSSPVTKSFNRGEC
B2: afucosylated anti-BCMA antibody (antibody)
heavy: not shown
light: B1 light
modifications: afucosylated Fc glycan
B3: Fc-enhanced anti-BCMA antibody (S239D, I332E) (antibody)
heavy: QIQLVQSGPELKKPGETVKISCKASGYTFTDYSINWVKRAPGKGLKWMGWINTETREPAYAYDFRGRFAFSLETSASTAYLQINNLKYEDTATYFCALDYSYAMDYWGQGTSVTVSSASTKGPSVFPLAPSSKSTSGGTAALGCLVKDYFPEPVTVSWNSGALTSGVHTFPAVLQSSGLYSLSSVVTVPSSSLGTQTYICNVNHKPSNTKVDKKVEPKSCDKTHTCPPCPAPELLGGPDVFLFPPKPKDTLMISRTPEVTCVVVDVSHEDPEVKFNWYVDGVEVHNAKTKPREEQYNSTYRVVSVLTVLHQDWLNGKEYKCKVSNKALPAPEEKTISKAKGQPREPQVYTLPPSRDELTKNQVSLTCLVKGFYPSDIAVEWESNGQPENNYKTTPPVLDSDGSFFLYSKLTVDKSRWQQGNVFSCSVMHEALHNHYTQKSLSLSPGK
light: B1 light
B4: afucosylated Fc-enhanced anti-BCMA antibody (S239D, I332E) (antibody)
heavy: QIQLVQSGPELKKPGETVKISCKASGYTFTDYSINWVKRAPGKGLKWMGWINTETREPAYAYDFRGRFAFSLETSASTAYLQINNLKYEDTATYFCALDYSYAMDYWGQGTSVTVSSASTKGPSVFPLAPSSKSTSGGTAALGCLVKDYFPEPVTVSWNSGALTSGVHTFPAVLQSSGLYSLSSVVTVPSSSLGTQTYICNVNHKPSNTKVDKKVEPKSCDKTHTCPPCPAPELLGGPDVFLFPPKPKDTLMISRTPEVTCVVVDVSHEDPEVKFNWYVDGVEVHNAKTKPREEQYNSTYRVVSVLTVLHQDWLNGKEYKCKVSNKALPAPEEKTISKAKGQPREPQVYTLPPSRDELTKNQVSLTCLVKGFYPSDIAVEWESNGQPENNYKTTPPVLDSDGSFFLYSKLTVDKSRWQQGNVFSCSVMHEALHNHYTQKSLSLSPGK
light: B1 light
modifications: afucosylated Fc glycan
B5: Fc-enhanced anti-CD19 antibody (antibody, V domains shown)
VH: EVQLVESGGGLVKPGGSLKLSCAASGYTFTSYVMHWVRQAPGKGLEWIGYINPYNDGTKYNEKFQGRVTISSDKSISTAYMELSSLRSEDTAMYYCARGTYYYGTRVFDYWGQGTLVTVSS
VL: DIVMTQSPATLSLSPGERATLSCRSSKSLQNVNGNTYLYWFQQKPGQSPQLLIYRMSNLNSGVPDRFSGSGSGTEFTLTISSLEPEDFAVYYCMQHLEYPITFGAGTKLEIKR

Assays:
Experiment in all cases: cell-based or functional assay
[1] = biological target: ACTR variant 1 (wild-type ACTR)
ACTR variant 93 = biological target: ACTR variant 93
ACTR variant 127 = biological target: ACTR variant 127
ACTR variant 94 = biological target: ACTR variant 94
ACTR variant 103 = biological target: ACTR variant 103
ACTR variant 26 = biological target: ACTR variant 26
[2] = biological target: ACTR variant 1 (wild-type ACTR); remark: listed apart in the source
ACTR variant 102 = biological target: ACTR variant 102
ACTR variant 131 = biological target: ACTR variant 131
ACTR variant 131, sequence (chain, as listed by the source mutant limits assumed): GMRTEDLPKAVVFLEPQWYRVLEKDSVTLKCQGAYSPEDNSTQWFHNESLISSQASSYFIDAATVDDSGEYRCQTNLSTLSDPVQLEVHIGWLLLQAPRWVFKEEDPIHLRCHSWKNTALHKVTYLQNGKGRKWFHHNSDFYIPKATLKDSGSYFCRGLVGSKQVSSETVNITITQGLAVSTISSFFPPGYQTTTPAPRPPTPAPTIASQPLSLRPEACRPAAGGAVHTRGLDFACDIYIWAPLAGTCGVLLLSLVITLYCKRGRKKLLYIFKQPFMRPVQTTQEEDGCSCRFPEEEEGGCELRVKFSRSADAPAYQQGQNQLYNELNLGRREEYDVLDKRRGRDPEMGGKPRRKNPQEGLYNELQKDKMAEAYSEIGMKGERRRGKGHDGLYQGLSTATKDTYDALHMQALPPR

ACTR variant 102, sequence (chain, as listed by the source mutant limits assumed): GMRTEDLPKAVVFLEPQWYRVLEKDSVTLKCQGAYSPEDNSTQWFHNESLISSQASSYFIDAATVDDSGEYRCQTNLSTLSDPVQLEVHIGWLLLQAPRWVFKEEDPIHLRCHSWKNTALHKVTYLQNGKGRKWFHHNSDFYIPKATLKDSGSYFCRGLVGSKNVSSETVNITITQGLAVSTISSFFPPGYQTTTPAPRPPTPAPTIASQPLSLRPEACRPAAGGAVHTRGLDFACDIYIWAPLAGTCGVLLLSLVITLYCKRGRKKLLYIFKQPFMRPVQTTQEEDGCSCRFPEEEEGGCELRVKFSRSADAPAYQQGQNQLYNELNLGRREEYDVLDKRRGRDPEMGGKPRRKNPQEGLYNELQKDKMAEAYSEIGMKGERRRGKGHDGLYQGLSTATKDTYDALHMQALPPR

Binder | Jurkat NFAT luciferase EC50 [1] [nM] | Jurkat NFAT luciferase EC50 (ACTR variant 93) [nM] | Jurkat NFAT luciferase EC50 (ACTR variant 127) [nM] | Jurkat NFAT luciferase EC50 (ACTR variant 94) [nM] | other results
B1 | < 20 | – | – | – | –
B2 | 1 | < 100 | – | – | –
B3 | 0.83 | – | < 100 | < 100 | –
B4 | 0.17 | < 5 | 2.26 | 1.12 | Jurkat NFAT luciferase EC50 (ACTR variant 103): 8.44 nM; Jurkat NFAT luciferase EC50 (ACTR variant 26): 4.36 nM
B5 | – | – | – | – | Jurkat NFAT luciferase EC50 [2]: 0.26 nM; Jurkat NFAT luciferase EC50 (ACTR variant 102): 2.2 nM; Jurkat NFAT luciferase EC50 (ACTR variant 131): 2 nM
